# Measured values as given in the supplement of paper PMC10567573.
# B1: FBF1 (parent)
# chain: LQRASILDMRRDHEEQLQRLKLLK
# Variants of: B1
# Experiment: protein stability index of a GFP-peptide fusion (GPS, HEK-293T) (PSI 1-6); higher = more stable
# Settings: c terminus: a fixed tail appended
# 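Note: lentivirally expressed fusions sorted by FACS into six bins by GFP to DsRed ratio, PSI derived from sequencing read proportions per bin multiplied by bin number.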
row,Variant,protein stability index
1,LQRASILDMRRDHREQLQRLKLLK [E14R],2.98
2,LQRASILDMRRDHNEQLQRLKLLK [E14N],2.86
3,LQRASILDMRRDHLEQLQRLKLLK [E14L],3.17
4,LQRASILDMRRDHCEQLQRLKLLK [E14C],2.79
5,LQRASILDMRRDHSEQLQRLKLLK [E14S],2.95
6,LQRASILDMRRDHMEQLQRLKLLK [E14M],2.56
7,LQRASILDMRRDHEEQLQRLKLVK [L23V],3.69
8,LQRASILDMRRDHEEQLQRLKLRK [L23R],3.94
9,LQRASILDMRRDHEEQLQRLKLMK [L23M],4.21
10,LQRASILDMRRDHEEQLQRLKLCK [L23C],4.09
11,LQRASILDMRRDHEEQLQRLKLDK [L23D],4.62
12,LQRASILDMRRDHEEQLQRLKLGK [L23G],3.94
13,LQRASILDMRRDHEEQLQRLKLWK [L23W],3
14,LQRASILDMRRDHEEQLQRLKLIK [L23I],3.88
15,LQRASILDMRREHEEQLQRLKLLK [D12E],3.93
16,LQRASILDMRRVHEEQLQRLKLLK [D12V],2.94
17,LQRASILDMRRYHEEQLQRLKLLK [D12Y],3.37
18,LQRASILDMRRSHEEQLQRLKLLK [D12S],3.31
19,LQRASILDMRRQHEEQLQRLKLLK [D12Q],3.71
20,LQRASILDMRRPHEEQLQRLKLLK [D12P],3.38
21,LQRASILDMRRDFEEQLQRLKLLK [H13F],3.17
22,LQRASILDMRRDEEEQLQRLKLLK [H13E],4.15
23,LQRASILDMRRDQEEQLQRLKLLK [H13Q],3.4
24,LQRASILDMRRDKEEQLQRLKLLK [H13K],2.68

row,Variant,protein stability index
1,LQRASILDMRRDYEEQLQRLKLLK [H13Y],2.83
2,LQRASILDMRRDCEEQLQRLKLLK [H13C],2.2
3,LQRASILDMRRDHEEQLQRLKLLQ [K24Q],2.68
4,LQRASILDMRRDHEEQLQRLKLLL [K24L],1.87
5,LQRASILDMRRDHEEQLQRLKLLI [K24I],2.28
6,LQRASILDMRRDHEEQLQRLKLLY [K24Y],2.81
7,LQRASILDMRRDHEEQLQRLKLLC [K24C],1.98
8,LQRASILDMRRDHEEQLQRLKLLM [K24M],4.03
9,LQRASILDMRRDHEEQLQRLKLLW [K24W],2.1
10,LQRASILDMRRDHEEQLQRLKLLG [K24G],3.2
11,LQRFSILDMRRDHEEQLQRLKLLK [A4F],2.9
12,LQRHSILDMRRDHEEQLQRLKLLK [A4H],3.73
13,LQRESILDMRRDHEEQLQRLKLLK [A4E],4.02
14,LQRWSILDMRRDHEEQLQRLKLLK [A4W],2.28
15,LQRRSILDMRRDHEEQLQRLKLLK [A4R],3.83
16,DQRASILDMRRDHEEQLQRLKLLK [L1D],4.73
17,GQRASILDMRRDHEEQLQRLKLLK [L1G],3.89
18,WQRASILDMRRDHEEQLQRLKLLK [L1W],3.22
19,PQRASILDMRRDHEEQLQRLKLLK [L1P],3.87
20,QQRASILDMRRDHEEQLQRLKLLK [L1Q],3.69
21,CQRASILDMRRDHEEQLQRLKLLK [L1C],3.11
22,LQRASILDMRRDHEEQLQRLWLLK [K21W],2.85
23,LQRASILDMRRDHEEQLQRLQLLK [K21Q],3.18
